Measured values: publication PMC10438466

B1: FOXA1: FOXA13A (protein)
parent chain: MLGTVKMEGHETSDWNSYYADTQEAYSSVPVSNMNSGLGSMNSMNTYMTMNTMTTSGNMTPASFNMSYANPGLGAGLSPGAVAGMPGGSAGAMNSMTAAGVTAMGTALSPSGMGAMGAQQAASMNGLGPYAAAMNPCMSPMAYAPSNLGRSRAGGGGDAKTFKRSYPHAKPPYSYISLITMAIQQAPSKMLTLSEIYQWIMDLFPYYRQNQQRWQNSIRHSLSFNDCFVKVARSPDKPGKGSYWTLHPDSGNMFENGCYLRRQKRFKCEKQPGAGGGGGSGSGGSGAKGGPESRKDPSGASNPSADSPLHRGVHGKTGQLEGAPAPGPAASPQTLDHSGATATGGASELKTPASSTAPPISSGPGALASVPASHPAHGLAPHESQLHLKGDPHYSFNHPFSINNLMSSSEQQHKLDFKAYEQALQYSPYGSTLPASLPLGSASVTTRSPIEPSALEPAYYQGVYSRPVLNTS
B2: FOXA1: OSMI-4 (protein)
parent chain: MLGTVKMEGHETSDWNSYYADTQEAYSSVPVSNMNSGLGSMNSMNTYMTMNTMTTSGNMTPASFNMSYANPGLGAGLSPGAVAGMPGGSAGAMNSMTAAGVTAMGTALSPSGMGAMGAQQAASMNGLGPYAAAMNPCMSPMAYAPSNLGRSRAGGGGDAKTFKRSYPHAKPPYSYISLITMAIQQAPSKMLTLSEIYQWIMDLFPYYRQNQQRWQNSIRHSLSFNDCFVKVARSPDKPGKGSYWTLHPDSGNMFENGCYLRRQKRFKCEKQPGAGGGGGSGSGGSGAKGGPESRKDPSGASNPSADSPLHRGVHGKTGQLEGAPAPGPAASPQTLDHSGATATGGASELKTPASSTAPPISSGPGALASVPASHPAHGLAPHESQLHLKGDPHYSFNHPFSINNLMSSSEQQHKLDFKAYEQALQYSPYGSTLPASLPLGSASVTTRSPIEPSALEPAYYQGVYSRPVLNTS
B3: FOXA1: TMG (protein)
parent chain: MLGTVKMEGHETSDWNSYYADTQEAYSSVPVSNMNSGLGSMNSMNTYMTMNTMTTSGNMTPASFNMSYANPGLGAGLSPGAVAGMPGGSAGAMNSMTAAGVTAMGTALSPSGMGAMGAQQAASMNGLGPYAAAMNPCMSPMAYAPSNLGRSRAGGGGDAKTFKRSYPHAKPPYSYISLITMAIQQAPSKMLTLSEIYQWIMDLFPYYRQNQQRWQNSIRHSLSFNDCFVKVARSPDKPGKGSYWTLHPDSGNMFENGCYLRRQKRFKCEKQPGAGGGGGSGSGGSGAKGGPESRKDPSGASNPSADSPLHRGVHGKTGQLEGAPAPGPAASPQTLDHSGATATGGASELKTPASSTAPPISSGPGALASVPASHPAHGLAPHESQLHLKGDPHYSFNHPFSINNLMSSSEQQHKLDFKAYEQALQYSPYGSTLPASLPLGSASVTTRSPIEPSALEPAYYQGVYSRPVLNTS

Key:
[1] = HA IP, anti-phospho-Ser/Thr WB; conditions: glycan lost; control: FOXA1WT, untreated
[2] = cycloheximide chase, WB, MCF-7 FOXA1 KO; conditions: glycan lost; control: FOXA1WT
HA IP, anti-ubiquitin WB = conditions: control: untreated HA-FOXA1WT cells
[3] = WB of HA-FOXA1 protein level; conditions: control: untreated HA-FOXA1WT cells

Protein | other: serine/threonine phosphorylation [1] | degradation_or_half_life [2] | other: ubiquitination (HA IP, anti-ubiquitin WB; glycan lost) | expression_or_secretion ([3]; glycan lost) | other: ubiquitination (HA IP, anti-ubiquitin WB; glycan gained) | expression_or_secretion ([3]; glycan gained)
B1 | decreases | increases |  |  |  | 
B2 | decreases |  | decreases | increases |  | 
B3 |  |  |  |  | increases | decreases
